In patent US10087225B2, “Formulation of MK2 inhibitor peptides” (MOERAE MATRIX, INC., priority 2015, dated 2018):

Columns and labels:
Assay in all cases: Kinase Profiling Assay
Assay type in all cases: biochemical
JAK3(h) = target: T1, JAK3(h) (Homo sapiens, UniProt P52333)
T1 sequence (P52333 1-1124): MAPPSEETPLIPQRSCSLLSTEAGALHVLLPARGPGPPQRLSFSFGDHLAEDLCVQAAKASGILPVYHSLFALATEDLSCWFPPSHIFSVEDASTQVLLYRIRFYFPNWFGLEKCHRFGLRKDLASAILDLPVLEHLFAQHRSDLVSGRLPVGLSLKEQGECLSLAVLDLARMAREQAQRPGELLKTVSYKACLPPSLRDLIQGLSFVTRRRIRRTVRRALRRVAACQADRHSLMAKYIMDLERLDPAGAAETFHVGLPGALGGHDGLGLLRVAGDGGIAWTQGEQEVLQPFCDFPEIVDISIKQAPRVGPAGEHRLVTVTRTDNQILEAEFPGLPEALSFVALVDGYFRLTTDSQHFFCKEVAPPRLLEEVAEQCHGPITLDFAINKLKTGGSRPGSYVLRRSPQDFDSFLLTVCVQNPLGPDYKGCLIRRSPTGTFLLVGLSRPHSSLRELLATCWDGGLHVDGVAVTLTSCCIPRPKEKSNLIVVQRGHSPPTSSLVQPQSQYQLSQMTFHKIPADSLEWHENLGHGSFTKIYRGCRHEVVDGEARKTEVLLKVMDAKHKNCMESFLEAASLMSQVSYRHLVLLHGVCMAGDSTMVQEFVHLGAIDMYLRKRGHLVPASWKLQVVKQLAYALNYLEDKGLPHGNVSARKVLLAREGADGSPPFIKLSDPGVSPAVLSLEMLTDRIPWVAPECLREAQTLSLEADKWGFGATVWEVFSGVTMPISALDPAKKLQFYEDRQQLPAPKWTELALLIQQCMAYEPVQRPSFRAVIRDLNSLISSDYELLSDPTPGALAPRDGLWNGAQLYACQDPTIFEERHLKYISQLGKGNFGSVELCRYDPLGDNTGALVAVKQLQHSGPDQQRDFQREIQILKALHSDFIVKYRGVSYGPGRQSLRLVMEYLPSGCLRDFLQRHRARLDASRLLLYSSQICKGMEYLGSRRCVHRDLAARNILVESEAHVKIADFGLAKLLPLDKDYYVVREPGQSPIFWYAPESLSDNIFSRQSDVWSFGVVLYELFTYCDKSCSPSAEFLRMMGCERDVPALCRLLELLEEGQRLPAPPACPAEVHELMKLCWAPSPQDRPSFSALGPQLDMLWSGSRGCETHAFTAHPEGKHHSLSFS

cKit(V560G)(h) = cKit(V560G)(h) (Homo sapiens, UniProt P10721, V560G)
MAPK1(h) = MAPK1(h) (Homo sapiens, UniProt P27361)
BrSK2(h) = target: T2, BrSK2(h) (Homo sapiens, UniProt Q8IWQ3)
T2 sequence (Q8IWQ3 1-736): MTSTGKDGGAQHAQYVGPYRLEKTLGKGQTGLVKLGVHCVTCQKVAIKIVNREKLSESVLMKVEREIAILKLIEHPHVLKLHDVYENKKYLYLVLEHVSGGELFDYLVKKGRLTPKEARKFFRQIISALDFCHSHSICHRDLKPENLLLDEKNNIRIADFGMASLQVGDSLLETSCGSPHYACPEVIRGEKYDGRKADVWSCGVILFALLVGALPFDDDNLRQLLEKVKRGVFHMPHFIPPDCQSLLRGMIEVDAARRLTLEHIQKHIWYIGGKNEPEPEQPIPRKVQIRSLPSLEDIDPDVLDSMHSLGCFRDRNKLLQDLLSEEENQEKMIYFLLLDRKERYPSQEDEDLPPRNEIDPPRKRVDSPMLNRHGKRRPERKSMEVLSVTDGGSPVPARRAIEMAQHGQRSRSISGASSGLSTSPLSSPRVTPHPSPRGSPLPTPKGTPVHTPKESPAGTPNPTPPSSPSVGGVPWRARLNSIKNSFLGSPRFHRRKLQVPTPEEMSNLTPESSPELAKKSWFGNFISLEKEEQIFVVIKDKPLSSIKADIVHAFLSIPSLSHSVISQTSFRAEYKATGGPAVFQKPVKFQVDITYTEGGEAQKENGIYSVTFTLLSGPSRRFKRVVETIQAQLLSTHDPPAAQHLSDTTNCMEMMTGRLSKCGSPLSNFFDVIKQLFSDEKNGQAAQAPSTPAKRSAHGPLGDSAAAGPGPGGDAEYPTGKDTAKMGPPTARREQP

NLK(h) = target: T3, NLK(h) (Homo sapiens, UniProt Q9UBE8)
T3 sequence (Q9UBE8 1-527): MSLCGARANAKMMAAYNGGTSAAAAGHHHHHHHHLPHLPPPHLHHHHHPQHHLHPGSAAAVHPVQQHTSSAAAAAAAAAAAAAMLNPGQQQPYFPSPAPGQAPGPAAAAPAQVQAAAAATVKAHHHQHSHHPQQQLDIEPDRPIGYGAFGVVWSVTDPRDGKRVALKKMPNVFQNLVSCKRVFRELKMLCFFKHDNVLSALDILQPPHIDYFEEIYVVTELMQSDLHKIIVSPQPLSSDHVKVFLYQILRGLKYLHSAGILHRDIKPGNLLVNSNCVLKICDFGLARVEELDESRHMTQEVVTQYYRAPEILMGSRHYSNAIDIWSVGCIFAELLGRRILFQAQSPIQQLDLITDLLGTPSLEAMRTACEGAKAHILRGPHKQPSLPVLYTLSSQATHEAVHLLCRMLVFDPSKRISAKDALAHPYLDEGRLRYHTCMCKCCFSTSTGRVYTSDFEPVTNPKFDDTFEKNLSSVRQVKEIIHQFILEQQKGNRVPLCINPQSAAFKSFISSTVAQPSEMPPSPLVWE

CaMKIδ(h) = CaMKIδ(h) (Homo sapiens, UniProt Q8IU85); settings: 100 μM
CaMKIIγ(h) = CaMKIIγ(h) (Homo sapiens, UniProt Q13555); settings: 100 μM
Src(1-530)(h) = target: T4, Src(1-530)(h) (Homo sapiens, UniProt P12931); settings: 100 μM
T4 construct: Src(1-530)(h)

CaMKI(h) = CaMKI(h) (Homo sapiens, UniProt Q14012); settings: 100 μM
IR(h) = IR(h) (Homo sapiens, UniProt P06213); settings: 100 μM
EGFR(h) = EGFR(h) (Homo sapiens, UniProt P00533); settings: 100 μM

CaMKI(h), sequence (Q14012 whole entry): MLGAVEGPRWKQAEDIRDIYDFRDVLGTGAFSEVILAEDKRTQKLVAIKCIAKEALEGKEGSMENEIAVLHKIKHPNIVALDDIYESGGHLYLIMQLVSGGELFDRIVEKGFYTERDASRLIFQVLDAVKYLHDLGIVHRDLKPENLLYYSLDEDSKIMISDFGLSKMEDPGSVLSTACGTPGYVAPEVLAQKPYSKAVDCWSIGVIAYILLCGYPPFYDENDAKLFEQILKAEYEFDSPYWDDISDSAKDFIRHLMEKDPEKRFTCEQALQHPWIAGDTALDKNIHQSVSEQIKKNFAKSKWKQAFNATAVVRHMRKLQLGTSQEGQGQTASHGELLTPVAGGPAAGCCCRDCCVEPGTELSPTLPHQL
CaMKIδ(h), sequence (Q8IU85 whole entry): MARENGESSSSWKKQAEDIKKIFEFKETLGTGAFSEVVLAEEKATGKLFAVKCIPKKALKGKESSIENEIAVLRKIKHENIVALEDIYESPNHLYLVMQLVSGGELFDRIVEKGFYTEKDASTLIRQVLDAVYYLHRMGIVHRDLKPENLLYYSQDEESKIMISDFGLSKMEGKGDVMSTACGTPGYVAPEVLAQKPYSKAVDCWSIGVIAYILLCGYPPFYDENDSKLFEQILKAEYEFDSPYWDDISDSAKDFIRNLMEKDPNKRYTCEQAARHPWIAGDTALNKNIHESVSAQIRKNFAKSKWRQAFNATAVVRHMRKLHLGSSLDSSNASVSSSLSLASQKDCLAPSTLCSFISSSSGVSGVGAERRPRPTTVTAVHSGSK
CaMKIIγ(h), sequence (Q13555 whole entry): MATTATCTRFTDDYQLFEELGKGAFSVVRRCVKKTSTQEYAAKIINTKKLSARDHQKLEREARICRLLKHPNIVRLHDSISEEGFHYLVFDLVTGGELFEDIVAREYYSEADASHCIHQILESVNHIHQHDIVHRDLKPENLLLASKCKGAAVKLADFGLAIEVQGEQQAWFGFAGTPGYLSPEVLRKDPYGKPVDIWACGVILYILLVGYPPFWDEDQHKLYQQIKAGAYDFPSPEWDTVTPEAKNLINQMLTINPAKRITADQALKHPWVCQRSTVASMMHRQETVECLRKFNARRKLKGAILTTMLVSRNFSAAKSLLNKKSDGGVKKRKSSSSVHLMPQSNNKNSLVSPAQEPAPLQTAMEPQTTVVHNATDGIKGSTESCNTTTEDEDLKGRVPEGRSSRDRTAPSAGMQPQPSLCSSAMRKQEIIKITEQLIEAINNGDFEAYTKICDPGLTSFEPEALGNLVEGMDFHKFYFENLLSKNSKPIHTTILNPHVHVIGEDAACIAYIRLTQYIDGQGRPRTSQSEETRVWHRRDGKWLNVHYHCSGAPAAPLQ
MAPK1(h), sequence (P27361 whole entry): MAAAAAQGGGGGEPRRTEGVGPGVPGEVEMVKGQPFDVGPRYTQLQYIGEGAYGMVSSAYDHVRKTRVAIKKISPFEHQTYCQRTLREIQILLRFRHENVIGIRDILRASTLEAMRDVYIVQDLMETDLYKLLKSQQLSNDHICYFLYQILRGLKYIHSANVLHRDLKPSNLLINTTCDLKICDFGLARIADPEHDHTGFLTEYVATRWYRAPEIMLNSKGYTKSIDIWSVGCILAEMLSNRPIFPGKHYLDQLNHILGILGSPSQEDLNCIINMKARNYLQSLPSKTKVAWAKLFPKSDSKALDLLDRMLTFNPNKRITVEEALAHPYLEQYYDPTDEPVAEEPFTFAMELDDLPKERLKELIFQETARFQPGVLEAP

Substance	activity at 100 µM (JAK3(h))	activity at 100 µM (cKit(V560G)(h))	activity at 100 µM (MAPK1(h))	activity at 100 µM (BrSK2(h))	activity at 100 µM (NLK(h))	% activity (CaMKIδ(h))	% activity (JAK3(h); 100 μM)	% activity (CaMKIIγ(h))	% activity (Src(1-530)(h))	% activity (CaMKI(h))	% activity (IR(h))	% activity (cKit(V560G)(h); 100 μM)	% activity (BrSK2(h); 100 μM)	% activity (NLK(h); 100 μM)	% activity (EGFR(h))	% activity (MAPK1(h); 100 μM)
H-YARAAARQARAKALARQLGVAA-OH [MMI-0100]	150%	94%	108%	129%	100%											
HRRIKAWLKKIKALARQLGVAA (Mammalian) [MMI-0500]						0%	95%	3%	21%	-1%	95%	198%	84%	19%	-1%	
YARAAARQARAKALNRQLGVA (Mammalian) [MMI-0200]						47%		94%	75%	21%	90%				83%	97%
